According to patent US20200216495A1 (ADRX, published 2020):
“And” between values parts separate entries of the source, which are not always exact repeats. Equal values may be shown once. Square brackets hold non-standard residues; d marks the D form. Ends that are not written are not given here.

target: Tau40 P301L protein (human); experiment: cell-based or functional assay

**Q.** How did the “IC50, Tau40 assay (ThT)” value turn out when [dW][dK][dV][dQ][dV][dR][dY][dW] [wkvqvryw] was run?
**A.** 3.54 µM

**Q.** With [dL][dH][dI][dK][dL][dK][dH][dF] [lhiklkhf] as the binder, how does the “IC50, Tau40 assay (ThT)” value read?
**A.** 4.44 µM and 4.64 µM

**Q.** Which “IC50, Tau40 assay (ThT)” value does the source give for [dW][dR][dL][dR][dT][dH][dW] [wrlrthw] here?
**A.** 3.33 µM

**Q.** For [dW][dL][dK][dI][dV][dW] [wlkivw], which “IC50, Tau40 assay (ThT)” value is on record?
**A.** 3.62 µM

**Q.** How did the “IC50, Tau40 assay (ThT)” value turn out when [dF][dR][dI][dK][dL][dK][dW][dH] [friklkwh] was run?
**A.** 3.88 µM and 3.9 µM

**Q.** For [dR][dL][dR][dV][dR][dW] [rlrvrw], which “IC50, Tau40 assay (ThT)” value is on record?
**A.** 3.71 µM and 4.76 µM

**Q.** With [dL][dE][dI][dK][dI][dR][dH][dW] [leikirhw] as the binder, how does the “IC50, Tau40 assay (ThT)” value read?
**A.** 5.38 µM and 8.72 µM

**Q.** For [dF][dH][dL][dH][dL][dK][dH][dW] [fhlhlkhw], which “IC50, Tau40 assay (ThT)” value is on record?
**A.** 3.74 µM

**Q.** [dL][dD][dL][dR][dF][dK][dL][dY] [ldlrfkly] was tested. Which “IC50, Tau40 assay (ThT)” value did it give?
**A.** 3.43 µM

**Q.** How did the “IC50, Tau40 assay (ThT)” value turn out when [dF][dR][dL][dR][dI][dH][dW][dF] [frlrihwf] was run?
**A.** 3.77 µM and 7.09 µM

**Q.** [dY][dR][dV][dR][dI][dQ][dH][dI] [yrvriqhi] was tested. Which “IC50, Tau40 assay (ThT)” value did it give?
**A.** 5.13 µM

**Q.** With [dW][dK][dL][dK][dL][dR][dW][dW] [wklklrww] as the binder, how does the “IC50, Tau40 assay (ThT)” value read?
**A.** 4.13 µM

**Q.** [dY][dH][dV][dK][dF][dR][dH][dW] [yhvkfrhw] was tested. Which “IC50, Tau40 assay (ThT)” value did it give?
**A.** 4.71 µM

**Q.** Which “IC50, Tau40 assay (ThT)” value does the source give for [dF][dK][dI][dE][dL][dH][dW][dH] [fkielhwh] here?
**A.** 3.37 µM and 3.44 µM

**Q.** How did the “IC50, Tau40 assay (ThT)” value turn out when [dW][dN][dL][dN][dV][dR][dW] [wnlnvrw] was run?
**A.** 3.33 µM

**Q.** Which “IC50, Tau40 assay (ThT)” value does the source give for [dK][dV][dR][dW][dW][dW][dR][dL] [kvrwwwrl] here?
**A.** 3.84 µM

**Q.** [dW][dR][dA][dR][dI][dH][dW] [wrarihw] was tested. Which “IC50, Tau40 assay (ThT)” value did it give?
**A.** 3.33 µM

**Q.** How did the “IC50, Tau40 assay (ThT)” value turn out when [dW][dK][dL][dK][dL][dR][dW] [wklklrw] was run?
**A.** 3.56 µM and 7.39 µM

**Q.** With [dH][dR][dF][dK][dV][dQ][dL][dY] [hrfkvqly] as the binder, how does the “IC50, Tau40 assay (ThT)” value read?
**A.** 4.03 µM

**Q.** For [dW][dN][dL][dK][dV][dN][dW] [wnlkvnw], which “IC50, Tau40 assay (ThT)” value is on record?
**A.** 4.86 µM

**Q.** With [dF][dE][dI][dR][dL][dW][dH][dH] [feirlwhh] as the binder, how does the “IC50, Tau40 assay (ThT)” value read?
**A.** 3.38 µM

**Q.** With [dW][dR][dL][dR][dV][dW] [wrlrvw] as the binder, how does the “IC50, Tau40 assay (ThT)” value read?
**A.** 5.48 µM and 5.5 µM

**Q.** [dL][dK][dI][dF][dI][dW][dY][dH] [lkifiwyh] was tested. Which “IC50, Tau40 assay (ThT)” value did it give?
**A.** 3.33 µM

**Q.** How did the “IC50, Tau40 assay (ThT)” value turn out when [dL][dA][dI][dR][dI][dH][dY] [lairihy] was run?
**A.** 3.98 µM

**Q.** [dF][dR][dL][dW][dI][dH][dW][dF] [frlwihwf] was tested. Which “IC50, Tau40 assay (ThT)” value did it give?
**A.** 4.39 µM and 6.88 µM

**Q.** With [dR][dL][dK][dV][dR][dW] [rlkvrw] as the binder, how does the “IC50, Tau40 assay (ThT)” value read?
**A.** 3.38 µM and 3.59 µM and 3.81 µM and 4.79 µM

**Q.** For [dF][dE][dL][dK][dL][dR][dW][dH] [felklrwh], which “IC50, Tau40 assay (ThT)” value is on record?
**A.** 4.94 µM and 5.3 µM

**Q.** [dW][dH][dV][dR][dI][dR][dH][dV] [whvrirhv] was tested. Which “IC50, Tau40 assay (ThT)” value did it give?
**A.** 5.03 µM

**Q.** With [dY][dR][dL][dK][dV][dR][dW] [yrlkvrw] as the binder, how does the “IC50, Tau40 assay (ThT)” value read?
**A.** 4.69 µM

**Q.** For [dW][dW][dL][dK][dL][dR][dW] [wwlklrw], which “IC50, Tau40 assay (ThT)” value is on record?
**A.** 3.54 µM

**Q.** Which “IC50, Tau40 assay (ThT)” value does the source give for [dR][dL][dR][dL][dK][dW] [rlrlkw] here?
**A.** 3.43 µM

**Q.** For [dF][dH][dL][dK][dI][dR][dH][dH] [fhlkirhh], which “IC50, Tau40 assay (ThT)” value is on record?
**A.** 3.29 µM and 3.36 µM

**Q.** How did the “IC50, Tau40 assay (ThT)” value turn out when [dF][dK][dL][dW][dL][dR][dW][dF] [fklwlrwf] was run?
**A.** 4.19 µM and 7.03 µM

**Q.** Which “IC50, Tau40 assay (ThT)” value does the source give for [dW][dW][dL][dR][dI][dH][dW][dW] [wwlrihww] here?
**A.** 4.09 µM and 5.61 µM

**Q.** How did the “IC50, Tau40 assay (ThT)” value turn out when [dL][dK][dI][dR][dI][dH] [lkirih] was run?
**A.** 4.95 µM

**Q.** For [dF][dR][dL][dW][dI][dH][dW] [frlwihw], which “IC50, Tau40 assay (ThT)” value is on record?
**A.** 3.33 µM

**Q.** For [dF][dK][dL][dE][dI][dR][dY][dH] [fkleiryh], which “IC50, Tau40 assay (ThT)” value is on record?
**A.** 3.38 µM

**Q.** For [dK][dI][dR][dI][dH][dY][dH][dL] [kirihyhl], which “IC50, Tau40 assay (ThT)” value is on record?
**A.** 4.59 µM

**Q.** [dL][dK][dI][dE][dI][dH][dY] [lkieihy] was tested. Which “IC50, Tau40 assay (ThT)” value did it give?
**A.** 3.32 µM

**Q.** For [dL][dK][dI][dR][dI][dH][dY][dE] [lkirihye], which “IC50, Tau40 assay (ThT)” value is on record?
**A.** 3.32 µM

**Q.** For [dE][dR][dL][dK][dV][dR][dW][dW] [erlkvrww], which “IC50, Tau40 assay (ThT)” value is on record?
**A.** 3.36 µM

**Q.** [dK][dL][dK][dW][dL][dW] [klkwlw] was tested. Which “IC50, Tau40 assay (ThT)” value did it give?
**A.** 4.41 µM

**Q.** How did the “IC50, Tau40 assay (ThT)” value turn out when [dF][dE][dI][dR][dL][dH][dH][dW] [feirlhhw] was run?
**A.** 4.2 µM

**Q.** How did the “IC50, Tau40 assay (ThT)” value turn out when [dR][dW][dK][dV][dR][dW] [rwkvrw] was run?
**A.** 3.7 µM

**Q.** Which “IC50, Tau40 assay (ThT)” value does the source give for [dA][dK][dI][dR][dI][dH][dY][dH] [akirihyh] here?
**A.** 3.54 µM

**Q.** [dL][dK][dI][dE][dI][dH][dY][dH] [lkieihyh] was tested. Which “IC50, Tau40 assay (ThT)” value did it give?
**A.** 3.64 µM

**Q.** For [dI][dH][dY][dH][dR][dI][dK][dL] [ihyhrikl], which “IC50, Tau40 assay (ThT)” value is on record?
**A.** 5.12 µM

**Q.** For [dL][dE][dI][dR][dI][dH][dY][dH] [leirihyh], which “IC50, Tau40 assay (ThT)” value is on record?
**A.** 4.07 µM

**Q.** Which “IC50, Tau40 assay (ThT)” value does the source give for [dL][dK][dI][dR][dI][dE][dH][dY] [lkiriehy] here?
**A.** 4.53 µM

**Q.** Which “IC50, Tau40 assay (ThT)” value does the source give for [dL][dK][dI][dF][dI][dH][dY][dH] [lkifihyh] here?
**A.** 4.57 µM

**Q.** For [dK][dI][dR][dI][dH][dY][dH] [kirihyh], which “IC50, Tau40 assay (ThT)” value is on record?
**A.** 4.92 µM

**Q.** How did the “IC50, Tau40 assay (ThT)” value turn out when [dR][dI][dH][dY][dH][dI][dK][dL] [rihyhikl] was run?
**A.** 3.59 µM

**Q.** How did the “IC50, Tau40 assay (ThT)” value turn out when [dW][dR][dL][dR][dI][dW][dW][dW] [wrlriwww] was run?
**A.** 3.76 µM and 5.41 µM

**Q.** [dK][dW][dR][dW][dY][dR][dR] [kwrwyrr] was tested. Which “IC50, Tau40 assay (ThT)” value did it give?
**A.** 3.55 µM

**Q.** Which “IC50, Tau40 assay (ThT)” value does the source give for [dF][dR][dV][dK][dI][dE][dH][dW] [frvkiehw] here?
**A.** 5.25 µM

**Q.** Which “IC50, Tau40 assay (ThT)” value does the source give for [dH][dK][dI][dR][dI][dH][dY][dH] [hkirihyh] here?
**A.** 3.84 µM

**Q.** [dW][dK][dV][dH][dI][dQ][dH][dW] [wkvhiqhw] was tested. Which “IC50, Tau40 assay (ThT)” value did it give?
**A.** 3.29 µM
